{"source": "the RNAGym collection of RNA variant scans (doi:10.7554/elife.80360)", "parents": {"B1": {"name": "CPEB3 Ribozyme (parent)", "chain": "GGGGGCCACAGCAGAAGCGUUCACGUCGCGGCCCCUGUCAGAUUCUGGUGAAUCUGCGAAUUCUGCUGU"}}, "data": [{"variants_of": "B1", "assay": "self-cleavage, relative activity (ratio to wild type); higher = more cleavage; co-transcriptional", "values": [{"variant": "GGGGGCCACAGCAGAUGCGUUCACGUCGCGGCCCCUGUCAGAUUCGGGUGAAUCUGCGAAUUCUGCUGU", "note": "[A16U U46G]", "self-cleavage": 0.78}, {"variant": "GGGGGCCACAGCAGAUGCGUUCACGUCGCGGCCCCUGUCAGAUUCAGGUGAAUCUGCGAAUUCUGCUGU", "note": "[A16U U46A]", "self-cleavage": 0.866}, {"variant": "GGGGGCCACAGCAGAUGCGUUCACGUCGCGGCCCCUGGCAGAUUCUGGUGAAUCUGCGAAUUCUGCUGU", "note": "[A16U U38G]", "self-cleavage": 0.272}, {"variant": "GGGGGCCACAGCAGAUGCGUUCACGUCGCGGCCCCUGUCAGAUUCUGGUGAAUCCGCGAAUUCUGCUGU", "note": "[A16U U55C]", "self-cleavage": 0.539}, {"variant": "GGGGGCCACAGCAGAUGCGUUCACGUCGCGGCCCCUGUCAGAUUCUGGUGAAUCAGCGAAUUCUGCUGU", "note": "[A16U U55A]", "self-cleavage": 0.624}, {"variant": "GGGGGCCACAGCAGAAACGUUCACGUCGCGGCCCCUUUCAGAUUCUGGUGAAUCUGCGAAUUCUGCUGU", "note": "[G17A G37U]", "self-cleavage": 0.146}, {"variant": "GGGGGCCACAGCAGAAACGUUCACGUCGCGGCCCCUGUCAGAUUCUGGUGUAUCUGCGAAUUCUGCUGU", "note": "[G17A A51U]", "self-cleavage": 0.433}, {"variant": "GGGGGCCACAGCAGAUGCGUUCACGUCGCUGCCCCUGUCAGAUUCUGGUGAAUCUGCGAAUUCUGCUGU", "note": "[A16U G30U]", "self-cleavage": 0.261}, {"variant": "GGGGGCCACAGCAGAAACGUUCACGUCGCGGCCCCUGUCAGAUUCUGGUGAAUCUGCGAAUUCUGCUGU", "note": "[G17A]", "self-cleavage": 0.592}, {"variant": "GGGGGCCACAGCAGAAACGUUCACGUCGCGGCCCCUGACAGAUUCUGGUGAAUCUGCGAAUUCUGCUGU", "note": "[G17A U38A]", "self-cleavage": 0.241}, {"variant": "GGGGGCCACAGCAGAAACGUUCACGUCGCGGCCCCUGUCAGAUUUUGGUGAAUCUGCGAAUUCUGCUGU", "note": "[G17A C45U]", "self-cleavage": 0.463}, {"variant": "GGGGGCCACAGCAGAAACGUUCACGUCGCGGCCCCUGUCAGAUUCUGUUGAAUCUGCGAAUUCUGCUGU", "note": "[G17A G48U]", "self-cleavage": 0.614}, {"variant": "GGGGGCCACAGCAGAAACGUUCACGUCGCGGCCCCUGUCAGAUUCUGAUGAAUCUGCGAAUUCUGCUGU", "note": "[G17A G48A]", "self-cleavage": 0.611}, {"variant": "GGGGGCCACAGCAGAUGCGUUCACGUCGCGGCCCCUGUCAGAUUCUGGUGAAUCUGCGAAUUCUGCUGG", "note": "[A16U U69G]", "self-cleavage": 0.972}, {"variant": "GGGGGCCACAGCAGAAACGUUCACGUCGCGACCCCUGUCAGAUUCUGGUGAAUCUGCGAAUUCUGCUGU", "note": "[G17A G31A]", "self-cleavage": 0.158}, {"variant": "GGGGGCCACAGCAGAAACGUUCACGUCGCGGCCCCUGUCAGAUUCUGGUGAAUCUGCGUAUUCUGCUGU", "note": "[G17A A59U]", "self-cleavage": 0.246}, {"variant": "GGGGGCCACAGCAGAAACGUUCACGUCGCGGCCCCUGUCAGAUUCUGGUGAAUCUGCGCAUUCUGCUGU", "note": "[G17A A59C]", "self-cleavage": 0.308}, {"variant": "GGGGGCCACAGCAGAAACGUUUACGUCGCGGCCCCUGUCAGAUUCUGGUGAAUCUGCGAAUUCUGCUGU", "note": "[G17A C22U]", "self-cleavage": 0.148}, {"variant": "GGGGGCCACAGCAGAAACGUUCACGUCGCGGCCCCUGUCAGAGUCUGGUGAAUCUGCGAAUUCUGCUGU", "note": "[G17A U43G]", "self-cleavage": 0.177}, {"variant": "GGGGGCCACAGCAGAAACGUUCACGUCGCGGCCCCUGUCAGACUCUGGUGAAUCUGCGAAUUCUGCUGU", "note": "[G17A U43C]", "self-cleavage": 0.336}, {"variant": "GGGGGCCACAGCAGAAACGUUCACGUCGCGGCCCCUGUCAGAAUCUGGUGAAUCUGCGAAUUCUGCUGU", "note": "[G17A U43A]", "self-cleavage": 0.253}, {"variant": "GGGGGCCACAGCAGAAACGUUCACGUCGCGGCCGCUGUCAGAUUCUGGUGAAUCUGCGAAUUCUGCUGU", "note": "[G17A C34G]", "self-cleavage": 0.197}, {"variant": "GGGGGCCACAGCAGAUGCGUUCACGUCGCGGCCCCUGUCAGAUUCUGGUGAAUCUGCGAAUACUGCUGU", "note": "[A16U U62A]", "self-cleavage": 0.74}, {"variant": "GGGGGCCACAGCAGAAACGUUCACGUCGCGGCCCCUGUCAGGUUCUGGUGAAUCUGCGAAUUCUGCUGU", "note": "[G17A A42G]", "self-cleavage": 0.286}, {"variant": "GGGGGCCACAGCAGAUGCGUUCACGUCGCGGCCCCUGUCAGAUUCUGGUGAAUCUGCGAAUUCUGCCGU", "note": "[A16U U67C]", "self-cleavage": 0.856}, {"variant": "GGGGGCCACAGCAGAUGCGUUCACGUCGCGGCCCCUGUCAGAUUCUGGUGAAUCUGCGAAUUCUUCUGU", "note": "[A16U G65U]", "self-cleavage": 0.4}, {"variant": "GGGGGCCACAGCAGAUGCGUUCACGUCGCGGCCCCUGUCAGAUUCUGGUGAAUCUGCGAAUUCUCCUGU", "note": "[A16U G65C]", "self-cleavage": 0.462}, {"variant": "GGGGGCCACAGCAGAAACGUUCACGUCGCGGCCCCUGUCAGAUUCUGGUGAAUCUGCGAAUUUUGCUGU", "note": "[G17A C63U]", "self-cleavage": 0.313}, {"variant": "GGGGGCCACAGCAGAAACGUUCAUGUCGCGGCCCCUGUCAGAUUCUGGUGAAUCUGCGAAUUCUGCUGU", "note": "[G17A C24U]", "self-cleavage": 0.142}, {"variant": "GGGGGCCACAGCAGAAACGUUCACGUCGCGGACCCUGUCAGAUUCUGGUGAAUCUGCGAAUUCUGCUGU", "note": "[G17A C32A]", "self-cleavage": 0.164}, {"variant": "GGGGGCCACAGCAGAAAUGUUCACGUCGCGGCCCCUGUCAGAUUCUGGUGAAUCUGCGAAUUCUGCUGU", "note": "[G17A C18U]", "self-cleavage": 0.122}, {"variant": "GGGGGCCACAGCAGAUGCGUUCACGUCGCGGCCCCUCUCAGAUUCUGGUGAAUCUGCGAAUUCUGCUGU", "note": "[A16U G37C]", "self-cleavage": 0.0966}, {"variant": "GGGGGCCACAGCAGAUGCGUUCACGGCGCGGCCCCUGUCAGAUUCUGGUGAAUCUGCGAAUUCUGCUGU", "note": "[A16U U26G]", "self-cleavage": 0.461}, {"variant": "GGGGGCCACAGCAGAUGCGUUCACGUCGCGGCCCCUGUCAGAUUCUGUUGAAUCUGCGAAUUCUGCUGU", "note": "[A16U G48U]", "self-cleavage": 0.907}, {"variant": "GGGGGCCACAGCAGAAACGUUCACGUCGCGGCCCCUGUCAGAUUCUUGUGAAUCUGCGAAUUCUGCUGU", "note": "[G17A G47U]", "self-cleavage": 0.562}, {"variant": "GGGGGCCACAGCAGAAACGUUCACGUCGCGGCCCUUGUCAGAUUCUGGUGAAUCUGCGAAUUCUGCUGU", "note": "[G17A C35U]", "self-cleavage": 0.345}, {"variant": "GGGGGCCACAGCAGAAACGUUCACGUCGCGGCCCCUGUCAGAUUCUGGUGAAUCUGCGAAAUCUGCUGU", "note": "[G17A U61A]", "self-cleavage": 0.231}, {"variant": "GGGGGCCACAGCAGAUGCGUUCACGUCGCGGCCCCGGUCAGAUUCUGGUGAAUCUGCGAAUUCUGCUGU", "note": "[A16U U36G]", "self-cleavage": 0.111}, {"variant": "GGGGGCCACAGCAGAAACGGUCACGUCGCGGCCCCUGUCAGAUUCUGGUGAAUCUGCGAAUUCUGCUGU", "note": "[G17A U20G]", "self-cleavage": 0.098}]}]}
